Each block holds one molecule with its values, some of them ahead of it.
Columns and labels:
[1] = target: recombinant human EDA protein (extra-domain A of fibronectin), His-tagged (human) (UniProt P02751); assay: flow cytometry, CD4+ control PSMA CAR-T cells incubated with soluble human His-EDA (50 µg/ml per legend paragraph 32), anti-His-APC; light grey histogram, lower number of the panel humanEDA, CD4 row [cont.) C]
[2] = target: recombinant mouse EDA protein (extra-domain A of fibronectin), His-tagged (mouse) (UniProt P11276); assay: flow cytometry, CD4+ control PSMA CAR-T cells incubated with soluble mouse His-EDA (50 µg/ml per legend paragraph 32), anti-His-APC; light grey histogram, lower number of the panel mouseEDA, CD4 row [cont.) C]
Chain of recombinant mouse EDA protein (extra-domain A of fibronectin), His-tagged (mouse) (P11276 1721-1810 limits assumed): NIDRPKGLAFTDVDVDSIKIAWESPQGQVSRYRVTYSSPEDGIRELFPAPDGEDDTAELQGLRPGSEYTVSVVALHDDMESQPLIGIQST

[3] = target: recombinant human EDA protein (extra-domain A of fibronectin), His-tagged (human) (UniProt P02751); assay: flow cytometry, CD8+ control PSMA CAR-T cells incubated with soluble human His-EDA (50 µg/ml per legend paragraph 32), anti-His-APC; light grey histogram, lower number of the panel humanEDA, CD8 row [cont.) C]
[4] = target: recombinant mouse EDA protein (extra-domain A of fibronectin), His-tagged (mouse) (UniProt P11276); assay: flow cytometry, CD8+ control PSMA CAR-T cells incubated with soluble mouse His-EDA (50 µg/ml per legend paragraph 32), anti-His-APC; light grey histogram, lower number of the panel mouseEDA, CD8 row [cont.) C]
[5] = target: T1, recombinant mouse EDA protein (extra-domain A of fibronectin), His-tagged (mouse, UniProt P11276 1721-1810); assay: IFN-gamma release (ELISA) by CAR-T cells on EDA-coated plates, 48 h (functional read-out, not direct binding)
T1 construct: Recombinant protein carrying a His tag; also called murine EDA; EDA (m)
T1 sequence (P11276 1721-1810 limits assumed): as above
Experimental: Also CAR-T cells were plated for 24 h in the presence of irradiated PM299L-EDA and PM299L-Thy1.1 cells. The number of IFN-γ producing cells was measured by ELISPOT as described by Lozano et al. (Lozano T et al., 2019). CAR-T cell proliferation and IFN-γ production were measured by 3H-thymidine incorporation (0.5 μCi per well) and ELISA, respectively, as described by Casares et al. (Casares N et al., 2010). In some cases, CAR-T cell proliferation was measured by Cell trace violet (CTV) dilution assay; Lymphocytes were incubated with the dye (5 μM) for 15 minutes at 37° C. and washed with RPMI 10% FBS. 8×10⁵ labelled lymphocytes were plated and co-incubated with PM299L-EDA^high and PM299L-Thy1.1 tumor cells at a ratio of 1:1 for 72 hours at 37° C. Subsequently, the proliferating population (measured by CTV dilution) was analyzed within GFP+ lymphocytes. The proliferation index was calculated as the ratio between proliferating cells in the presence of tumor cells expressing EDA (PM299L-EDA^high) and the number of proliferating cells in the presence of tumor cells not expressing EDA (PM299L. Thy1.1) at the end of the co-culture.
EDA CAR-T cells were generated by retroviral transduction of CD4⁺ or CD8⁺ T cells with the corresponding retrovirus. Five days after infection, T cells were analyzed by flow cytometry. […] IFN-g released to the culture supernatant was measured by ELISA.

[6] = target: T2, recombinant human EDA protein (extra-domain A of fibronectin), His-tagged (human, UniProt P02751 1722-1811); assay: Bio-Layer Interferometry (Octet N1), scFv F8 on AR2G biosensors, soluble EDA
T2 construct: Recombinant protein carrying a His tag; also called hEDA; EDA (h)
T2 sequence (P02751 1722-1811 limits assumed): as the sequence (P11276 1721-1810 limits assumed) above, with R44H, D54E, I87T counted along it
Experimental: (§1) The resulting plasmid was transfected into BL21(DE3) cells for the expression of the recombinant scFv which was purified by affinity chromatography using protein A Sepharose (Amersham Biosciences) according to the manufacturer's instructions. Purified antibody fragments were analyzed by Coomassie and Western blot using anti-His antibodies. Recognition of EDA protein by the purified scFv F8 fragment was tested by ELISA using plates coated with recombinant EDA protein produced as described previously (Lasarte J J et al., 2007). The equilibrium dissociation constant (KD) of scFv F8 to soluble human and mouse EDAs was calculated by Bio-Layer Interferometry (BLI) using an Octet N1 (Sartorius) (FIG. 13). The scFv F8 was coated to the AR2G Biosensors (Fortébio) following manufacturer's instructions.
(§2) To evaluate the functionality of the CAR construct, EDA CAR-T cells were cultured in EDA coated plates for 48 h. Both CD4+ and CD8+ EDA CAR-T, but not PSMA CAR-T cells produced high amounts of IFN-γ (FIG. 3D) and proliferated in response to EDA (FIG. 3E). […] This discrepancy could be due to the methodological differences between assays. Indeed, in the binding experiments EDA proteins are added in solution and bind to the CAR-T cells directly. […]

[7] = target: T1, recombinant mouse EDA protein …; assay: as above
Experimental: as §1, §2

[8] = target: T2, recombinant human EDA protein …; assay: Bio-Layer Interferometry (Octet N1), scFv F8 on AR2G biosensors, soluble hEDA at 1, 2, 4 and 8 uM; table column Kd (1/s) [cont.) E]
Text: as §1, with “A DNA sequence coding for the scFv recombinant antibody fragment F8 (Rybak J N et al., 2007) was cloned in pET20b plasmid (Novagen), which enables expression of fusion proteins carrying six histidine residues at the carboxyl terminus. The resulting” for “The resulting”

[9] = target: T1, recombinant mouse EDA protein …; assay: Bio-Layer Interferometry (Octet N1), scFv F8 on AR2G biosensors, soluble mEDA at 1, 2, 4 and 8 uM; table column Kd (1/s) [cont.) E]
Text: as §1, with “A DNA sequence coding for the scFv recombinant antibody fragment F8 (Rybak J N et al., 2007) was cloned in pET20b plasmid (Novagen), which enables expression of fusion proteins carrying six histidine residues at the carboxyl terminus. The resulting” for “The resulting”

Chain of recombinant human EDA protein (extra-domain A of fibronectin), His-tagged (human) (P02751 1722-1811 limits assumed): as the sequence (P11276 1721-1810 limits assumed) above, with R44H, D54E, I87T counted along it

MFI (mean fluorescence intensity) [1]: 269
MFI (mean fluorescence intensity) [2]: 49
MFI (mean fluorescence intensity) [3]: 203
MFI (mean fluorescence intensity) [4]: 46
Molecule: PSMA CAR (anti-human PSMA scFv from mouse hybridoma J591 in the murine 4-1BB-CD3zeta cassette) on mouse T cells

B1: chimeric EDA CAR with anti-EDA C27 scFv (VH/VL of antibody 27A12.70) in the murine 4-1BB-CD3zeta cassette, on mouse T cells (other)
chain: DVQLQESGPDLVKPSQSLSLTCTVTGYSITSGYSWHWIRQFPGNKLEWMGYIHYSGIANYNPSLKSRISITRDTSKNHFFLQLNSVTTEDTATYYCATEKTGFFDYWGQGTTLTVSSGGGGSGGGGSGGGGSGGGGSDVVMTQTPLSLPVSLGDQASISCRSSQSLVHSNGNTYLHWYLQKPGQSPKLLIYKVSNRFSGVPDRFSGSGSGTDFTLKISRVEAEDLGVYFCSQSAHVPPTFGGGTKLEIKR
notes: also called C27 EDA CAR-T; clone C27; not shown: limits on that entry
binding result [5]: no binding (tested: 5 µg/ml coated (FIG. 14 legend))

Kd [6]: 77.6 nM
Kd [7]: 99.5 nM
koff [8]: 0.000532 s⁻¹
koff [9]: 0.000342 s⁻¹
B2: anti-EDA F8 scFv (purified recombinant antibody fragment) (scFv)
scFv: EVQLLESGGGLVQPGGSLRLSCAASGFTFSVMKMSWVRQAPGKGLEWVSAISGSGGSTYYADSVKGRFTISRDNSKNTLYLQMNSLRAEDTAVYYCAKSTHLYLFDYWGQGTLVTVSSGGGGSGGGGSGGGGSGGGGSEIVLTQSPGTLSLSPGERATLSCRASQSVSNAFLAWYQQKPGQAPRLLIYGASSRATGIPDRFSGSGSGTDFTLTISRLEPEDFAVYYCQQMRGRPPTFGQGTKVEIKHHHHHH
notes: Expressed in E. coli BL21(DE3) from pET20b and purified on protein A Sepharose; also called scFv F8; scFv (F8)

Source: patent publication US20260007697A1 (FUNDACI N PARA LA INVESTIGACI N M DICA APLICADA, published 2026)
